The test addresses Streptavidin (UniProt P22629). Briefly: flow cytometry of YFP fluorescence on streptavidin coated beads after adding 1 uM biotin.

Sequence of Streptavidin (P22629 37-163 limits assumed): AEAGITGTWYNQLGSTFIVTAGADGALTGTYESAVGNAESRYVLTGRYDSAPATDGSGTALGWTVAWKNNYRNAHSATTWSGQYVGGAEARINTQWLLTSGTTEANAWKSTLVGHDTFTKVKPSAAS

As to “Yellow fluorescent protein with streptavidin binding peptide SA-1 inserted after Y145”, the off-rate constant (koff) turned out to be 0.02 s⁻¹.
